Test results as given in the supplement of paper PMC9112550, “Optimization of the antimicrobial peptide Bac7 by deep mutational scanning” (BMC Biology, 2022).

system: Escherichia coli TOP10; assay: shrunken log2 fold change of peptide-encoding DNA abundance (4.5 h post-induction vs induction); higher = less antimicrobial activity (less host growth inhibition); conditions: time post-induction: 4.5 h; library: site-saturation at positions 5, 18, 19, 20
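Also: peptides expressed intracellularly from a pBAD plasmid library in pooled LB shake-flask culture, induced with 0.3% L-arabinose, DNA abundance read by NGS, three biological replicates, DESeq2 with apeglm shrinkage.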

First: RRIRLRPPRLPRPRPRPTHTPRP
Second: RRIRPRPPRLPRPRPRPYRIPRP
The “shrunken log2 fold change” value of the first is higher: -0.158 for the first, -0.384 for the second.

First: RRIRKRPPRLPRPRPRPPDMPRP
Second: RRIRYRPPRLPRPRPRPWVHPRP
The “shrunken log2 fold change” value of the first is higher: 0.469 for the first, -0.701 for the second.

Going from RRIRPRPPRLPRPRPRPHCEPRP to RRIRMRPPRLPRPRPRPVHHPRP, the “shrunken log2 fold change” value falls from 0.308 to 0.00757.

Compared with RRIRDRPPRLPRPRPRPVLWPRP, RRIRMRPPRLPRPRPRPFIWPRP is lower in “shrunken log2 fold change” value: 0.37 for the first, 0.0163 for the second.

RRIRLRPPRLPRPRPRPGNSPRP and RRIRIRPPRLPRPRPRPCVLPRP are within 0.2 log units of each other in “shrunken log2 fold change” value: -0.0133 for the first, -0.145 for the second.

RRIRLRPPRLPRPRPRPDVWPRP and RRIRERPPRLPRPRPRPRDRPRP are within 0.2 log units of each other in “shrunken log2 fold change” value: 0.127 for the first, 0.0224 for the second.

First: RRIRFRPPRLPRPRPRPVITPRP
Second: RRIRVRPPRLPRPRPRPFKIPRP
The “shrunken log2 fold change” value of the first is lower: -0.666 for the first, -0.342 for the second.

RRIRMRPPRLPRPRPRPHIRPRP and RRIRVRPPRLPRPRPRPVFIPRP are within 0.2 log units of each other in “shrunken log2 fold change” value: -0.0162 for the first, -0.144 for the second.

Going from RRIRMRPPRLPRPRPRPPFDPRP to RRIRNRPPRLPRPRPRPNQKPRP, the “shrunken log2 fold change” value falls from 0.873 to -0.174.

First: RRIRTRPPRLPRPRPRPHEPPRP
Second: RRIRCRPPRLPRPRPRPLHPPRP
The “shrunken log2 fold change” value of the first is lower: -0.197 for the first, 0.199 for the second.

RRIRTRPPRLPRPRPRPSSTPRP and RRIRCRPPRLPRPRPRPFMGPRP are within 0.2 log units of each other in “shrunken log2 fold change” value: -0.604 for the first, -0.585 for the second.

First: RRIRGRPPRLPRPRPRPHTQPRP
Second: RRIRYRPPRLPRPRPRPSLPPRP
The “shrunken log2 fold change” value of the first is higher: 0.0483 for the first, -0.546 for the second.

First: RRIRVRPPRLPRPRPRPIRTPRP
Second: RRIRDRPPRLPRPRPRPHMGPRP
The “shrunken log2 fold change” value of the first is higher: 0.782 for the first, -0.174 for the second.

First: RRIRCRPPRLPRPRPRPYENPRP
Second: RRIRHRPPRLPRPRPRPFMVPRP
The “shrunken log2 fold change” value of the first is higher: -0.145 for the first, -0.43 for the second.

RRIRYRPPRLPRPRPRPECQPRP and RRIRFRPPRLPRPRPRPDDFPRP are within 0.2 log units of each other in “shrunken log2 fold change” value: 0.0129 for the first, 0.0834 for the second.

Compared with RRIRNRPPRLPRPRPRPSTCPRP, RRIRERPPRLPRPRPRPIYLPRP is lower in “shrunken log2 fold change” value: -0.186 for the first, -0.649 for the second.

First: RRIRCRPPRLPRPRPRPHKKPRP
Second: RRIRRRPPRLPRPRPRPFSKPRP
The “shrunken log2 fold change” value of the first is higher: 0.242 for the first, -0.348 for the second.

RRIRTRPPRLPRPRPRPCCWPRP and RRIRTRPPRLPRPRPRPMQRPRP are within 0.2 log units of each other in “shrunken log2 fold change” value: 0.0822 for the first, -0.0122 for the second.

RRIRFRPPRLPRPRPRPYCLPRP and RRIRMRPPRLPRPRPRPDYHPRP are within 0.2 log units of each other in “shrunken log2 fold change” value: -0.341 for the first, -0.457 for the second.

Going from RRIRGRPPRLPRPRPRPYNSPRP to RRIRYRPPRLPRPRPRPRVIPRP, the “shrunken log2 fold change” value rises from -0.359 to -0.0396.

Compared with RRIRQRPPRLPRPRPRPGFVPRP, RRIRDRPPRLPRPRPRPFFKPRP is lower in “shrunken log2 fold change” value: 0.217 for the first, -0.127 for the second.

RRIRIRPPRLPRPRPRPTDCPRP and RRIRARPPRLPRPRPRPSNKPRP are within 0.2 log units of each other in “shrunken log2 fold change” value: -0.196 for the first, -0.31 for the second.

RRIRARPPRLPRPRPRPHTDPRP and RRIRCRPPRLPRPRPRPFGHPRP are within 0.2 log units of each other in “shrunken log2 fold change” value: -0.111 for the first, 0.0616 for the second.

RRIRLRPPRLPRPRPRPRVWPRP and RRIRFRPPRLPRPRPRPGPGPRP are within 0.2 log units of each other in “shrunken log2 fold change” value: 0.655 for the first, 0.676 for the second.

Going from RRIRHRPPRLPRPRPRPVRRPRP to RRIRNRPPRLPRPRPRPMTYPRP, the “shrunken log2 fold change” value falls from 0.241 to -0.0655.

RRIRFRPPRLPRPRPRPPCWPRP and RRIRTRPPRLPRPRPRPRDWPRP are within 0.2 log units of each other in “shrunken log2 fold change” value: 0.478 for the first, 0.483 for the second.

RRIRARPPRLPRPRPRPFANPRP and RRIRRRPPRLPRPRPRPPIKPRP are within 0.2 log units of each other in “shrunken log2 fold change” value: 0.0657 for the first, 0.14 for the second.

First: RRIRCRPPRLPRPRPRPKSFPRP
Second: RRIRTRPPRLPRPRPRPLKYPRP
The “shrunken log2 fold change” value of the first is higher: -0.288 for the first, -0.641 for the second.

Compared with RRIRVRPPRLPRPRPRPASAPRP, RRIRERPPRLPRPRPRPHEKPRP is lower in “shrunken log2 fold change” value: 0.309 for the first, -0.00663 for the second.

Going from RRIRGRPPRLPRPRPRPGGQPRP to RRIRNRPPRLPRPRPRPDGTPRP, the “shrunken log2 fold change” value falls from 0.672 to -0.128.

RRIRWRPPRLPRPRPRPGQQPRP and RRIRWRPPRLPRPRPRPQDRPRP are within 0.2 log units of each other in “shrunken log2 fold change” value: -0.17 for the first, -0.0199 for the second.

RRIRQRPPRLPRPRPRPTKNPRP and RRIRCRPPRLPRPRPRPMTVPRP are within 0.2 log units of each other in “shrunken log2 fold change” value: 0.0334 for the first, -0.0302 for the second.

RRIRNRPPRLPRPRPRPFQWPRP and RRIRWRPPRLPRPRPRPWTEPRP are within 0.2 log units of each other in “shrunken log2 fold change” value: -0.212 for the first, -0.301 for the second.

Compared with RRIRDRPPRLPRPRPRPTYCPRP, RRIRCRPPRLPRPRPRPDSFPRP is higher in “shrunken log2 fold change” value: -0.27 for the first, 0.211 for the second.

Compared with RRIRMRPPRLPRPRPRPTMWPRP, RRIRVRPPRLPRPRPRPCYCPRP is lower in “shrunken log2 fold change” value: 0.274 for the first, -0.32 for the second.

Compared with RRIRFRPPRLPRPRPRPKYFPRP, RRIRNRPPRLPRPRPRPRTPPRP is higher in “shrunken log2 fold change” value: -0.758 for the first, 0.261 for the second.

First: RRIRARPPRLPRPRPRPPPIPRP
Second: RRIRYRPPRLPRPRPRPSHGPRP
The “shrunken log2 fold change” value of the first is higher: 1 for the first, -0.274 for the second.

Compared with RRIRYRPPRLPRPRPRPQCIPRP, RRIRMRPPRLPRPRPRPKKTPRP is higher in “shrunken log2 fold change” value: -0.0693 for the first, 1.46 for the second.

First: RRIRSRPPRLPRPRPRPMFLPRP
Second: RRIRYRPPRLPRPRPRPCETPRP
The “shrunken log2 fold change” value of the first is lower: -0.595 for the first, 0.00591 for the second.

First: RRIRSRPPRLPRPRPRPCEFPRP
Second: RRIRPRPPRLPRPRPRPPSDPRP
The “shrunken log2 fold change” value of the first is lower: -0.227 for the first, 0.128 for the second.

RRIRPRPPRLPRPRPRPGLLPRP and RRIRKRPPRLPRPRPRPWLLPRP are within 0.2 log units of each other in “shrunken log2 fold change” value: 0.217 for the first, 0.0409 for the second.

Going from RRIRLRPPRLPRPRPRPAMFPRP to RRIRYRPPRLPRPRPRPIPKPRP, the “shrunken log2 fold change” value rises from -0.0833 to 0.141.

First: RRIRCRPPRLPRPRPRPGTGPRP
Second: RRIRTRPPRLPRPRPRPRNMPRP
The “shrunken log2 fold change” value of the first is higher: 0.119 for the first, -0.493 for the second.

Going from RRIRPRPPRLPRPRPRPEQIPRP to RRIRCRPPRLPRPRPRPMLSPRP, the “shrunken log2 fold change” value falls from 0.0118 to -0.202.

Compared with RRIRLRPPRLPRPRPRPMAPPRP, RRIRGRPPRLPRPRPRPSNKPRP is lower in “shrunken log2 fold change” value: 0.19 for the first, -0.0675 for the second.

Going from RRIRVRPPRLPRPRPRPPYQPRP to RRIRRRPPRLPRPRPRPWAYPRP, the “shrunken log2 fold change” value rises from -0.3 to -0.0717.

Going from RRIRQRPPRLPRPRPRPHADPRP to RRIRWRPPRLPRPRPRPDWWPRP, the “shrunken log2 fold change” value rises from -0.43 to 0.0352.

Compared with RRIRRRPPRLPRPRPRPTNNPRP, RRIRHRPPRLPRPRPRPSNKPRP is lower in “shrunken log2 fold change” value: -0.0392 for the first, -0.802 for the second.

Going from RRIRMRPPRLPRPRPRPWSSPRP to RRIRSRPPRLPRPRPRPTRGPRP, the “shrunken log2 fold change” value rises from -0.145 to 0.581.

RRIRFRPPRLPRPRPRPMSKPRP and RRIRERPPRLPRPRPRPNSFPRP are within 0.2 log units of each other in “shrunken log2 fold change” value: -0.0951 for the first, -0.249 for the second.

First: RRIRQRPPRLPRPRPRPEANPRP
Second: RRIRYRPPRLPRPRPRPSFPPRP
The “shrunken log2 fold change” value of the first is higher: 0.0119 for the first, -0.831 for the second.

RRIRTRPPRLPRPRPRPWIPPRP and RRIRDRPPRLPRPRPRPEECPRP are within 0.2 log units of each other in “shrunken log2 fold change” value: -0.2 for the first, -0.00963 for the second.

Compared with RRIRMRPPRLPRPRPRPFHKPRP, RRIRVRPPRLPRPRPRPQGHPRP is lower in “shrunken log2 fold change” value: 0.0887 for the first, -0.177 for the second.

RRIRLRPPRLPRPRPRPTKWPRP and RRIRFRPPRLPRPRPRPCLKPRP are within 0.2 log units of each other in “shrunken log2 fold change” value: -0.0762 for the first, -0.148 for the second.

For RRIRVRPPRLPRPRPRPHEIPRP, the “shrunken log2 fold change” value was 0.026.
